# The supplement of paper PMC9112550, “Optimization of the antimicrobial peptide Bac7 by deep mutational scanning” (BMC Biology, 2022)
# System: Escherichia coli TOP10
# Experiment: shrunken log2 fold change of peptide-encoding DNA abundance (4.5 h post-induction vs induction); higher = less antimicrobial activity (less host growth inhibition)
# Details: time post-induction: 4.5 h; library: site-saturation at positions 5, 18, 19, 20
# 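Note: peptides expressed intracellularly from a pBAD plasmid library in pooled LB shake-flask culture, induced with 0.3% L-arabinose, DNA abundance read by NGS, three biological replicates, DESeq2 with apeglm shrinkage.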
row,Sequence,shrunken log2 fold change
1,RRIRGRPPRLPRPRPRPWLTPRP,0.134
2,RRIRWRPPRLPRPRPRPTNHPRP,-0.245
3,RRIRKRPPRLPRPRPRPDPIPRP,0.129
4,RRIRLRPPRLPRPRPRPDQVPRP,0.0207
5,RRIRPRPPRLPRPRPRPPSFPRP,0.262
6,RRIRPRPPRLPRPRPRPGARPRP,1.19
7,RRIRFRPPRLPRPRPRPNTFPRP,-0.559
8,RRIRGRPPRLPRPRPRPGEHPRP,0.587
9,RRIRHRPPRLPRPRPRPCIQPRP,-0.00018
10,RRIRYRPPRLPRPRPRPHKEPRP,0.103
11,RRIRLRPPRLPRPRPRPGTYPRP,0.386
12,RRIRCRPPRLPRPRPRPKWFPRP,0.0996
13,RRIRPRPPRLPRPRPRPEIMPRP,-0.0268
14,RRIRGRPPRLPRPRPRPSEPPRP,0.413
15,RRIRPRPPRLPRPRPRPHAQPRP,-0.119
16,RRIRQRPPRLPRPRPRPYYLPRP,-0.253
17,RRIRPRPPRLPRPRPRPKPCPRP,-0.044
18,RRIRCRPPRLPRPRPRPDEDPRP,-0.0684
19,RRIRNRPPRLPRPRPRPFFGPRP,0.239
20,RRIRYRPPRLPRPRPRPNHNPRP,-1.23
21,RRIRHRPPRLPRPRPRPTYCPRP,-0.129
22,RRIRQRPPRLPRPRPRPHWYPRP,-0.0983
23,RRIRWRPPRLPRPRPRPGFFPRP,0.26
24,RRIRWRPPRLPRPRPRPHFYPRP,-0.117
25,RRIRMRPPRLPRPRPRPVTHPRP,0.0493

row,Sequence,shrunken log2 fold change
1,RRIRCRPPRLPRPRPRPHCLPRP,-1.4
2,RRIRPRPPRLPRPRPRPTNRPRP,-0.104
3,RRIRSRPPRLPRPRPRPHTMPRP,-0.163
4,RRIRWRPPRLPRPRPRPLDSPRP,0.0674
5,RRIRVRPPRLPRPRPRPNPFPRP,-0.104
6,RRIRVRPPRLPRPRPRPWPRPRP,0.183
7,RRIRFRPPRLPRPRPRPHRGPRP,0.0928
8,RRIRFRPPRLPRPRPRPRRFPRP,0.0577
9,RRIRSRPPRLPRPRPRPSCWPRP,0.306
10,RRIRKRPPRLPRPRPRPKFDPRP,-0.146
11,RRIRMRPPRLPRPRPRPCQHPRP,-0.188
12,RRIRHRPPRLPRPRPRPMVVPRP,0.00198
13,RRIRDRPPRLPRPRPRPETKPRP,0.0655
14,RRIRERPPRLPRPRPRPSILPRP,-0.623
15,RRIRCRPPRLPRPRPRPLARPRP,0.0547
16,RRIRTRPPRLPRPRPRPIMPPRP,-0.331
17,RRIRNRPPRLPRPRPRPMKHPRP,-0.705
18,RRIRTRPPRLPRPRPRPGCAPRP,0.515
19,RRIRGRPPRLPRPRPRPLFGPRP,0.584
20,RRIRARPPRLPRPRPRPIFYPRP,-0.0773
21,RRIRERPPRLPRPRPRPDRIPRP,-0.311
22,RRIRHRPPRLPRPRPRPAIRPRP,-0.000964
23,RRIRDRPPRLPRPRPRPLEVPRP,0.121
24,RRIRWRPPRLPRPRPRPCPVPRP,-0.249
25,RRIRIRPPRLPRPRPRPIAHPRP,-0.358

row,Sequence,shrunken log2 fold change
1,RRIRGRPPRLPRPRPRPPNDPRP,0.76
2,RRIRKRPPRLPRPRPRPQKWPRP,0.0282
3,RRIRIRPPRLPRPRPRPMKMPRP,-0.127
4,RRIRPRPPRLPRPRPRPHAFPRP,0.0176
5,RRIRNRPPRLPRPRPRPARHPRP,0.0771
6,RRIRFRPPRLPRPRPRPLMRPRP,0.278
7,RRIRNRPPRLPRPRPRPDIRPRP,-0.01
8,RRIRWRPPRLPRPRPRPTMSPRP,-0.065
9,RRIRGRPPRLPRPRPRPEHWPRP,0.378
10,RRIRKRPPRLPRPRPRPIKHPRP,0.567
11,RRIRCRPPRLPRPRPRPCNYPRP,-1.4
12,RRIRFRPPRLPRPRPRPWEIPRP,-0.0062
13,RRIRVRPPRLPRPRPRPCRHPRP,0.0429
14,RRIRCRPPRLPRPRPRPIHNPRP,-0.725
15,RRIRIRPPRLPRPRPRPVQCPRP,0.0517
16,RRIRPRPPRLPRPRPRPARWPRP,0.44
17,RRIRYRPPRLPRPRPRPNAKPRP,-0.0394
18,RRIRCRPPRLPRPRPRPDVKPRP,-0.153
19,RRIRGRPPRLPRPRPRPLTHPRP,0.168
20,RRIRCRPPRLPRPRPRPDESPRP,0.153
21,RRIRQRPPRLPRPRPRPIIAPRP,0.00878
22,RRIRKRPPRLPRPRPRPIAEPRP,0.0504
23,RRIRIRPPRLPRPRPRPQQYPRP,-0.808
24,RRIRLRPPRLPRPRPRPIESPRP,0.033
25,RRIRVRPPRLPRPRPRPVGEPRP,0.305
